Experimental data taken from publication PMC5634487, “Structural basis for IL-1α recognition by a modified DNA aptamer that specifically inhibits IL-1α signaling” (Nature Communications, 2017).

Biological target: T1, human IL-1α, biotinylated (human, UniProt P01583 113-271, biotin (EZ-Link NHS-Peg4-Biotin, 10-fold molar excess; sites not stated))
T1 construct: interleukin-1 alpha (IL1A), human; crystallised); If it was the ProSpec protein, it may carry a His tag (surmised from the Talon beads); also called IL-1a; IL1F1; source: purified IL-1α protein, biotinylated with EZ-Link NHS-Peg4-Biotin
T1 sequence (looked up): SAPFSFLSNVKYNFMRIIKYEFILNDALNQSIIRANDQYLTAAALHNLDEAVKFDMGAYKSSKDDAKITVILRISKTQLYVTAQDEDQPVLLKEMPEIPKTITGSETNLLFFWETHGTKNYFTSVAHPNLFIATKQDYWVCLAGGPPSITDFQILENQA
Test: radioligand binding; competition: 32P-labelled aptamer SL1067 (~30 pM) and unlabelled receptor (10^-6 to 10^-11 M) with biotinylated IL-1α (2 nM) in SB18T buffer (40 mM HEPES pH 7.5, 102 mM NaCl, 5 mM KCl, 5 mM MgCl2, 0.01% Tween-20), 37 °C, 60 min; complexes captured on MyOne streptavidin resin and Durapore filter plates; one-site competition model
Conditions: both partners purified

B1: recombinant IL-1RII, extracellular domain (receptor, UniProt P27930 14-343, looked up)
chain: FTLQPAAHTGAARSCRFRGRHYKREFRLEGEPVALRCPQVPYWLWASVSPRINLTWHKNDSARTVPGEEETRMWAQDGALWLLPALQEDSGTYVCTTRNASYCDKMSIELRVFENTDAFLPFISYPQILTLSTSGVLVCPDLSEFTRDKTDVKIQWYKDSLLLDKDNEKFLSVRGTTHLLVHDVALEDAGYYRCVLTFAHEGQQYNITRSIELRIKKKKEETIPVIISPLKTISASLGSRLTIPCKVFLGTGTPLTTMLWWTANDTHIESAYPGGRVTEGPRQEYSENNENYIEVPLIFDPVTREDLHMDFKCVVHNTLSFQTLRTTVKE
notes: interleukin-1 receptor type 2, extracellular domain; also called IL-1RI1 (as printed in the methods); source: bought: R&D Systems
Ki: 290 nM

B2: recombinant IL-1RI, extracellular domain (receptor, UniProt P14778 18-336, looked up)
chain: LEADKCKEREEKIILVSSANEIDVRPCPLNPNEHKGTITWYKDDSKTPVSTEQASRIHQHKEKLWFVPAKVEDSGHYYCVVRNSSYCLRIKISAKFVENEPNLCYNAQAIFKQKLPVAGDGGLVCPYMEFFKNENNELPKLQWYKDCKPLLLDNIHFSGVKDRLIVMNVAEKHRGNYTCHASYTYLGKQYPITRVIEFITLEENKPTRPVIVSPANETMEVDLGSQIQLICNVTGQLSDIAYWKWNGSVIDEDDPVLGEDYYSVENPANKRRSTLITVLNISEIESRFYKHPFTCFAKNTHGIDAAYIQLIYPVTNFQK
notes: interleukin-1 receptor type 1, extracellular domain; also called IL-1R1; IL-1 receptor; source: bought: R&D Systems
Ki: 21 nM
